Assay [1] concerns the target T1, biotinylated hCD16a (Sino Biological Inc., 10389-H27H1-B) (human, UniProt P08637 17-208, biotinylated).
T1 construct: Bought reagent, captured on a neutravidin-coated plate; also called human CD16a
Briefly: ELISA on biotinylated hCD16a captured on neutravidin; anti-human Fc-HRP detection. The procedure:
(§1) Specifically, a Maxisorp plate was coated with 100 ng/well of Neutravidin Biotin-binding Protein (ThermoScientific, 31000) and incubated overnight at 4° C. The following day, the plate was blocked with PBS+1% casein for 2 hours at room temperature. […] Binding to hCD16a was detected using an HRP-conjugated polyclonal goat anti-human Fc antibody (Jackson ImmunoResearch, 109-035-008) (incubation 1 hour at RT, dilution 1/50,000 in PBS+0.1% casein), followed by addition of […] room temperature-equilibrated TMB (SDT-reagents #s TMB). Plates were incubated for 10 minutes prior to addition of 100 μl 0.5N H₂SO₄ and OD450 nm measurement. EC50 values were determined using GraphPad Prism software.
(In general: In an ELISA, binding on a coated surface is turned into a signal by an enzyme label.)

In assay [2] the target is T2, murine CD16-2 (Sino Biological Inc., 50036-M27H-B) (murine, UniProt A0A0B4J1G0 21-203, Probably biotinylated on a vendor tag (suffix -B); not given).
T2 construct: Bought reagent, used in 'a similar experimental procedure' to the hCD16a ELISA; also called mCD16-2
T2 sequence: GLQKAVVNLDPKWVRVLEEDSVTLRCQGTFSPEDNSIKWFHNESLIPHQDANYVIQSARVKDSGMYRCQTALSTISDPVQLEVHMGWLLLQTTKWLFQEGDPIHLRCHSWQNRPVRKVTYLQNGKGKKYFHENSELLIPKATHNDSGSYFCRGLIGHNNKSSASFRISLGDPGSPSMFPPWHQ
Briefly: ELISA on murine CD16-2, similar procedure to the hCD16a ELISA. The procedure:
as §1
Using a similar experimental procedure as described above, the binding affinity for murine CD16-2 (Sino Biological Inc., 50036-M27H-B) was determined.

T1 sequence (P08637 17-208 limits assumed): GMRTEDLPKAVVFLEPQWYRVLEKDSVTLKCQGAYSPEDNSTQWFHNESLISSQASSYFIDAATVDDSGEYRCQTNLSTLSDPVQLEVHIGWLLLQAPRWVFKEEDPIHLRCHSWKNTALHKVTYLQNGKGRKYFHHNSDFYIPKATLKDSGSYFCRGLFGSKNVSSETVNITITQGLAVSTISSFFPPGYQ

B1: Fc-Abdeg-POT (other)
chain: DKTHTCPPCPAPELLGGPSVFLFPPKPKDTLYITREPEVTCVVVDVSHEDPEVKFNWYVDGVEVHNAKTKPREEQYNSTYRVVSVLTVLHQDWLNGKEYKCKVSNKALPAPIEKTISKAKGQPREPQVYTLPPSRDELTKNQVSLTCLVKGFYPSDIAVEWESNGQPENNYKTTPPVLDSDGSFFLYSKLTVDKSRWQQGNVFSCSVMHEALKFHYTQKSLSLSPGK
modifications: afucosylated N-linked glycan (afucosylated form of Fc-Abdeg)
notes: also called afucosylated form of Fc-Abdeg; afucosylated variant
For the molecule B1, in assay [1], the EC50 (as a rule, the concentration at which the effect is half-maximal) was 13 nM and the “fold increase in affinity over fucosylated Fc-Abdeg” value was greater than 30 fold. In assay [2], a half-maximal effect (EC50) was put at 11 nM.

B2: Fc-Abdeg-S239D/I332E (other)
chain: DKTHTCPPCPAPELLGGPDVFLFPPKPKDTLYITREPEVTCVVVDVSHEDPEVKFNWYVDGVEVHNAKTKPREEQYNSTYRVVSVLTVLHQDWLNGKEYKCKVSNKALPAPEEKTISKAKGQPREPQVYTLPPSRDELTKNQVSLTCLVKGFYPSDIAVEWESNGQPENNYKTTPPVLDSDGSFFLYSKLTVDKSRWQQGNVFSCSVMHEALKFHYTQKSLSLSPGK
notes: Fc-Abdeg variant
B2 registered an EC50 in assay [1] of 6 nM.
